Assay results taken from publication PMC7162832, “An unusual metal-bound 4-fluorothreonine transaldolase from Streptomyces sp. MA37 catalyses promiscuous transaldol reactions” (Applied Microbiology and Biotechnology, 2020).
One block for each molecule: values may come before it.

Columns and labels:
[1] = system: CC(C)C=O; experiment: purified protein; conditions: L-threonine 5 mM, PLP 0.1 mM, Tris-HCl pH 7.5
[2] = system: O=CCF; experiment: purified protein; conditions: apparent, FAd 0.12-2.4 mM, L-threonine 20 mM (methods: 0.5-20 mM aldehyde, 5 mM L-Thr), PLP 0.1 mM, Tris-HCl pH 7.5
[3] = system: O=CCCl; experiment: purified protein; conditions: L-threonine 5 mM, PLP 0.1 mM, Tris-HCl pH 7.5
[4] = system: O=CCc1ccccc1; experiment: purified protein; conditions: L-threonine 5 mM, PLP 0.1 mM, Tris-HCl pH 7.5
[5] = molecular target: T1, FTaseMA (Streptomyces sp. MA37, UniProt W0W903); experiment: DNPH derivatisation and HPLC; format: biochemical; parameters: gene flFT1; full-length (SHMT-like S domain plus aldolase-like A domain), N-His6, from MA37 genomic DNA in pGM1190 (pMBC001), expressed in Streptomyces lividans 66; dimer
[6] = molecular target: T1, FTaseMA; experiment: biochemical; parameters: gene flFT1
Description: acetaldehyde release, DNPH derivatisation and HPLC on FTaseMA

[7] = molecular target: 4-fluorothreonine transaldolase from Streptomyces sp. MA37 (Streptomyces sp. MA37) (UniProt W0W999); experiment: SEC; ENrich High-Resolution Size Exclusion Column (Bio-Rad, 25 mL), isocratic elution; oligomeric state estimated from the retention time

Molecule: FTaseMA (Streptomyces sp. MA37)
Km [1]: 535 ± 78 µM | kcat [1]: 0.0135 s⁻¹ | kcat/Km [1]: 25.4 M⁻¹ s⁻¹ | Km [2]: 241 ± 2 µM | kcat [2]: 0.03 s⁻¹ | kcat/Km [2]: 125 M⁻¹ s⁻¹ | Km [3]: 1350 ± 1 µM | kcat [3]: 0.0238 s⁻¹ | kcat/Km [3]: 17.6 M⁻¹ s⁻¹ | Km [4]: 358 ± 6 µM | kcat [4]: 0.00975 s⁻¹ | kcat/Km [4]: 27.2 M⁻¹ s⁻¹

Molecule: O=CCO [compound 9, glycolaldehyde]
Km [5]: 357 ± 10 µM

Molecule: C[C@H](O)[C@H](N)C(=O)O [compound 19, L-allo-threonine]
Km [6]: 1180 ± 6 µM

stoichiometry N [7]: 2
Molecule: 4-fluorothreonine transaldolase from Streptomyces sp. MA37 (from UniProt W0W999 1-299) (enzyme)

Molecule: C[C@@H](O)[C@H](N)C(=O)O [compound 6, L-threonine]
Km [6]: 1180 ± 7 µM

Molecule: CCC=O [compound 11, propanal]
Km [5]: 1450 ± 179 µM
